Source: PMC1931443, “Vertebrate DM domain proteins bind similar DNA sequences and can heterodimerize on DNA”

Tests used:
[1] = biological target: T1, DMRT3 (mouse, UniProt Q80WT2 1-476); test: EMSA supershift; primarily monomer; 9E10; EMSA: 10 mM Tris-HCl pH 7.9, 100 mM KCl, 10% glycerol, 5 mM MgCl2, 1 mM spermidine, 0.075% Triton-X-100, 1 mM DTT, 1 ug BSA, 0.1 ug dI-dC, 75 ng plasmid DNA, 0.5 ng probe, 4 ul IVT mix in 20 ul, on ice 10 min; gel at 4 C; IVT with 20 uM ZnSO4; conditions: protein: ivt; tags: N-terminal Myc; label: 32P (Klenow fill-in); 5' overhang 4 nt both ends (filled in on labeling)
T1 sequence (Q80WT2 whole entry): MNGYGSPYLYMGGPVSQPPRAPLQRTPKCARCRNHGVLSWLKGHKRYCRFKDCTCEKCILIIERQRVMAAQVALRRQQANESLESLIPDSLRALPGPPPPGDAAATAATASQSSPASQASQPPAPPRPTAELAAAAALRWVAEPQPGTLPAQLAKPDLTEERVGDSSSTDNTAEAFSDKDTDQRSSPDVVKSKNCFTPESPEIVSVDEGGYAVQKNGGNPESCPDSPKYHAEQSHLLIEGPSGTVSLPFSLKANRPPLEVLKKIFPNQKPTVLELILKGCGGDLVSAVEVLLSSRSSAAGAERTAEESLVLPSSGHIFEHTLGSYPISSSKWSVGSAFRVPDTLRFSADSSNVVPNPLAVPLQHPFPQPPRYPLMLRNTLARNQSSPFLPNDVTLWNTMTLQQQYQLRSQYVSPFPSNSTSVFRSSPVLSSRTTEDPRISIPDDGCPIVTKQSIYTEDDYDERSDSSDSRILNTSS

[2] = biological target: T2, DMRT5 (mouse, UniProt A2A9A2 1-531); test: EMSA supershift; 9E10; EMSA: 10 mM Tris-HCl pH 7.9, 100 mM KCl, 10% glycerol, 5 mM MgCl2, 1 mM spermidine, 0.075% Triton-X-100, 1 mM DTT, 1 ug BSA, 0.1 ug dI-dC, 75 ng plasmid DNA, 0.5 ng probe, 4 ul IVT mix in 20 ul, on ice 10 min; gel at 4 C; IVT with 20 uM ZnSO4; conditions: protein: ivt; tags: N-terminal Myc; label: 32P (Klenow fill-in); 5' overhang 4 nt both ends (filled in on labeling)
T2 sequence (A2A9A2 whole entry): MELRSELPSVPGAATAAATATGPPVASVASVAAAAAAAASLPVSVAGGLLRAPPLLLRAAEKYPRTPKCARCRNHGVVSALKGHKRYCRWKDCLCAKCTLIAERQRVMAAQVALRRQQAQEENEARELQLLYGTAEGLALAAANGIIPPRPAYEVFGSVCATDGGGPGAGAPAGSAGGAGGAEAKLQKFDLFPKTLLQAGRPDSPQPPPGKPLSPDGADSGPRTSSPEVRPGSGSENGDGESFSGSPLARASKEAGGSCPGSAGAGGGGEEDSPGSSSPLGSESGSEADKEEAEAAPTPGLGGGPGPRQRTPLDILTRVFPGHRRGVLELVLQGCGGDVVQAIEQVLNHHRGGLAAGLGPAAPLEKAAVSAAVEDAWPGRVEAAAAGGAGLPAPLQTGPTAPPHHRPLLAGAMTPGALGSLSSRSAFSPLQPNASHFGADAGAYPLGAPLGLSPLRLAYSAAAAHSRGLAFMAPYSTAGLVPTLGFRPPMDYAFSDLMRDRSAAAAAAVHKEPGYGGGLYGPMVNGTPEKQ

[3] = biological target: T1, DMRT3; test: EMSA supershift; mainly dimer; 9E10; EMSA: 10 mM Tris-HCl pH 7.9, 100 mM KCl, 10% glycerol, 5 mM MgCl2, 1 mM spermidine, 0.075% Triton-X-100, 1 mM DTT, 1 ug BSA, 0.1 ug dI-dC, 75 ng plasmid DNA, 0.5 ng probe, 4 ul IVT mix in 20 ul, on ice 10 min; gel at 4 C; IVT with 20 uM ZnSO4; conditions: protein: ivt; tags: N-terminal Myc; label: 32P (Klenow fill-in); 5' overhang 4 nt both ends (filled in on labeling)
[4] = biological target: DMRT4 (mouse, UniProt Q8CFG4 1-490); test: EMSA; complex fails to enter gel (possible aggregate); EMSA: 10 mM Tris-HCl pH 7.9, 100 mM KCl, 10% glycerol, 5 mM MgCl2, 1 mM spermidine, 0.075% Triton-X-100, 1 mM DTT, 1 ug BSA, 0.1 ug dI-dC, 75 ng plasmid DNA, 0.5 ng probe, 4 ul IVT mix in 20 ul, on ice 10 min; gel at 4 C; IVT with 20 uM ZnSO4; conditions: protein: ivt; tags: C-terminal Myc; chain copies: 2; label: 32P (Klenow fill-in); 5' overhang 4 nt both ends (filled in on labeling)
DMRT4, sequence (Q8CFG4 whole entry): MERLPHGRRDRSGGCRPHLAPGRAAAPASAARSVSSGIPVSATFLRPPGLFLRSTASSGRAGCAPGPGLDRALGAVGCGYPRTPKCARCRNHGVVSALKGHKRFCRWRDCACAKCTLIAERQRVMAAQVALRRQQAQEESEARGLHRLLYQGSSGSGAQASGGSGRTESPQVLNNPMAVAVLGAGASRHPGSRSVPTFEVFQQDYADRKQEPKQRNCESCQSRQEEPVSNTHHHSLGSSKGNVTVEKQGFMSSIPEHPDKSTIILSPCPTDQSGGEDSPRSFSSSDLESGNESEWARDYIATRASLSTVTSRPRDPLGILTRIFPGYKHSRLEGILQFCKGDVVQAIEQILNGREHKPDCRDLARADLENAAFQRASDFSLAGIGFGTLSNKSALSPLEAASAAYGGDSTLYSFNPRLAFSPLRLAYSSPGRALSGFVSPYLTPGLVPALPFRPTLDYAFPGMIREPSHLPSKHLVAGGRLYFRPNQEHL

[5] = biological target: T2, DMRT5; test: competition; 40-fold excess; tolerated; EMSA: 10 mM Tris-HCl pH 7.9, 100 mM KCl, 10% glycerol, 5 mM MgCl2, 1 mM spermidine, 0.075% Triton-X-100, 1 mM DTT, 1 ug BSA, 0.1 ug dI-dC, 75 ng plasmid DNA, 0.5 ng probe, 4 ul IVT mix in 20 ul, on ice 10 min; gel at 4 C; IVT with 20 uM ZnSO4; conditions: protein: ivt; tags: N-terminal Myc; 5' overhang 4 nt both ends

B1: 3RE (dsDNA)
DNA 1: TCGAGAACAATGTAACAATTTCGCCC
DNA 2: TCGAGGGCGAAATTGTTACATTGTTC
Q: Does B1 bind [1]?
A: Result: binds

B2: 1RE (Figure 2) (dsDNA)
DNA 1: TCGAGCCCGCAACAATGTTGCAAATC
DNA 2: TCGAGATTTGCAACATTGTTGCGGGC
Q: Does B2 bind [2]?
A: Result: binds

Q: Does B2 bind [3]?
A: Result: binds

Q: Does B2 bind [4]?
A: Result: binds

B3: DMRT1 site -8G (dsDNA)
DNA 1: TCGAGATGTGATACATTGTTGC
DNA 2: TCGAGCAACAATGTATCACATC
Q: Does B3 bind [5]?
A: Result: binds
